B1: THAP1; numbered along this chain (parent)
chain: MVQSCSAYGCKNRYDKDKPVSFHKFPLTRPSLCKEWEAAVRRKNFKPTKYSSICSEHFTPDCFKRECNNKLLKENAVPTIFLCTEPHDKKEDLLEPQEQLPPPPLPPPVSQVDAAIGLLMPPLQTPVNLSVFCDHNYTVEDTMHQRKRIHQLEQQVEKLRKKLKTAQQRCRRQERQLEKLKEVVHFQKEKDDVSERGYVILPNDYFEIVEVPA

These results are taken from the supplement of paper PMC11811203.

This data set covers variants of B1. Put plainly: THAP1 transcriptional activity (GFP+/GFP- enrichment relative to wild-type constructs) (ratio to WT); higher = more THAP1 activity (PSMB5 reporter activation). To be noted: with PSMB5 promoter-GFP reporter. The method, then:
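Deep mutational scan of human THAP1. Site-saturation single amino acid variant library (residues 2-213) was expressed by lentivirus at MOI ~0.3 in THAP1-knockout HEK-293T cells carrying an endogenous PSMB5 promoter-GFP knock-in reporter. Five days post-transduction, BFP+ cells were FACS-sorted into GFP dim and GFP bright populations and variants were counted by Illumina sequencing. Activity is the GFP-bright/GFP-dim read fold change, mean of 2 replicates, divided by the mean fold change of wild-type (synonymous) constructs in the same screen pool; WT = 1.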
In the case of MVQSCSAYGCKNRYDKDKPVSFHKFPLTRPSLCKEWEAAVRRKNFKPTKYSSICSEHFTPDCFKRECNNKLLKENAVPTIFLCTEPHDKKEDLLEPQEQLPPPPLPPPVSQVDAAIGLLMPPLQTPVNLSVFCDHNYTVEDTMHQRKRIHQLEQQVEKLRKKLKTAGQRCRRQERQLEKLKEVVHFQKEKDDVSERGYVILPNDYFEIVEVPA [Q167G], the THAP1 transcriptional activity amounted to 0.21.
The figure for MVQSCSAYGCKNRYDKDKPVSFHKFPLTRPSLCKEWEAAVRRKNFKPTKYSSICSEHFTPDCFKRECNNKLLKENAVPTIFLCTEPHDKKEDLLEPQEQLPPPPLPPPVSQVDAAIGLLMPPLQTPVNLSVFCDHNYTVEDTMHQRKRIHQLEQQVEKLRKKLKTANQRCRRQERQLEKLKEVVHFQKEKDDVSERGYVILPNDYFEIVEVPA [Q167N] is 0.559; for MVQSCSAYGCKNRYDKDKPVSFHKFPLTRPSLCKEWEAAVRRKNFKPTKYSSICSEHFTPDCFKRECNNKLLKENAVPTIFLCTEPHDKKEDLLEPQEQLPPPPLPPPVSQVDAAIGLLMPPLQTPVNLSVFCDHNYTVEDTMHQRKRIHQLEQQVEKLRKKLKTAQQRCRRQERQLEKLKEVVHFAKEKDDVSERGYVILPNDYFEIVEVPA [Q187A] it is 1.21.
As for MVQSCSAYGCKNRYDKDKPVSFHKFPLTRPSLCKEWEAAVRRKNFKPTKYSSICSEHFTPDCFKRECNNKLLKENAVPTIFLCTEPHDKKEDLLEPQEQLPPPPLPPPVSQVDAAIGLLMPPLQTPVNLSVFCDHNYTVEDTMHQRKRIHQLEQQVEILRKKLKTAQQRCRRQERQLEKLKEVVHFQKEKDDVSERGYVILPNDYFEIVEVPA [K158I], the figure is 0.55; as for MVQSCSAYGCKNRYDKDKPVSFHKFPLTRPSLCKEWEAAVRRKNFKPTKYSSICSEHFTPDCFKRECNNKLLKENAVPTIFLCTEPHDKKEDLLEPQEQLPPPPLPPPVSQVDAAIGLLMPPLQTPVNLSVFCDHNYTVEDTMHQRKRIHQLEQQVEKLRKKLKTAQQRCRRQERQLEKLKEVVHFQKEKDDVSERGYVILPNMYFEIVEVPA [D204M], 0.901; as for MVQSCSAYGCKNRYDKDKPVSFHKFPLTRPSLCKEWEAAVRRKNFKPTKYSSICSEHFTPDCFKRECNNKLLKENAVPTIFLCTEPHDKKEDLLEPQEQLPPPPLPPPVSQVDAAIGLLMPPLQTPVNLSVFCDHNYTVEDTMHQRKRIHQLEQQVEKLRKKLKTAQQRCRRQERQLEKLKEVVHFQKEKDDVSERGYVILPNCYFEIVEVPA [D204C], 0.753.
As for MVQSCSAYGCKNRYDKDKPVSFHKFPLTRPSLCKEWEAAVRRKNFKPTKYSSICSEHFTPDCFKRECNNKLLKENAVPTIFLCTEPHDKKEDLLEPQEQLPPPPLPPPVSQVDAAIGLLMPPLQTPVNLSVFCDHNYTVEDTMDQRKRIHQLEQQVEKLRKKLKTAQQRCRRQERQLEKLKEVVHFQKEKDDVSERGYVILPNDYFEIVEVPA [H144D], the figure is 0.747.
Regarding MVQSCSAYGCKNRYDKDKPVSFHKFPLTRPSLCKEWEAAVRRKNFKPTKYSSICSEHFTPDCFKRECNNKLLKENAVPTIFLCTEPHDKKEDLLEPQEQLPPPPLPPPVDQVDAAIGLLMPPLQTPVNLSVFCDHNYTVEDTMHQRKRIHQLEQQVEKLRKKLKTAQQRCRRQERQLEKLKEVVHFQKEKDDVSERGYVILPNDYFEIVEVPA [S110D], the THAP1 transcriptional activity is 0.782.
The figure for MVQSCSAYGCKNRYDKDKPVSFHKFPLTRPSLCKEWEAAVRRKNFKPTKYSSICSEHFTPDCFKRECNNKLLKENAVPTIFLCTEPHDKKEDLLEPQCQLPPPPLPPPVSQVDAAIGLLMPPLQTPVNLSVFCDHNYTVEDTMHQRKRIHQLEQQVEKLRKKLKTAQQRCRRQERQLEKLKEVVHFQKEKDDVSERGYVILPNDYFEIVEVPA [E98C] is 0.653; for MVQSCSAYGCKNRYDKDKPVSFHKFPLTRPSLCKEWEAAVRRKNFKPTKYSSICSEHFTPDCFKRECNNKLLKENAVPTIFLCTEPHDKKEDLLEPQEQLPPPPLPPPVSQVDAAIGLLMPPLQTPVNLSVFCDHNYTVEDTMHQRKRIHQLESQVEKLRKKLKTAQQRCRRQERQLEKLKEVVHFQKEKDDVSERGYVILPNDYFEIVEVPA [Q154S] it is 1.24.
As for MVQSCSAYGCKNRYDKDKPVSFHKFPLTRPSLCKEWEAAVRRKNFKPTKYSSICSEHFTPDCFKRECNNKLLKENAVPTIFLCTEPHDKKEDLYEPQEQLPPPPLPPPVSQVDAAIGLLMPPLQTPVNLSVFCDHNYTVEDTMHQRKRIHQLEQQVEKLRKKLKTAQQRCRRQERQLEKLKEVVHFQKEKDDVSERGYVILPNDYFEIVEVPA [L94Y], the figure is 1.34.
The figure for MVQSCSAYGCKNRYDKDKPVSFHKFPLTRPSLCKEWEAAVRRKNFKPTKYSSICSEHFTPDCFKRECNNKLLKENAVPTIFLCTEPHDKKEDLLEPQEQLPPPPLPPPVSQVDAAIGLLMPPLQTPVNLSVFCDHNYTVEDTMHQRKRIHQLEQQVEKLRKKLKTAQQRCRRQEYQLEKLKEVVHFQKEKDDVSERGYVILPNDYFEIVEVPA [R175Y] is 0.619.
As for MVQSCSAYGCKNRYDKDKPVSFHKFPLTRPSLCKEWEAAVRRKNFKPTKYSSICSEHFTPDCFKRECNNKLLKENAVPTIFLCTEPHDKKEDLLEPQEQLPPHPLPPPVSQVDAAIGLLMPPLQTPVNLSVFCDHNYTVEDTMHQRKRIHQLEQQVEKLRKKLKTAQQRCRRQERQLEKLKEVVHFQKEKDDVSERGYVILPNDYFEIVEVPA [P103H], the THAP1 transcriptional activity turned out to be 0.719.
The figure for MVQSCSAYGCKNRYDKDKPVSFHKFPLTRPSLCKEWEAAVRRKNFKPTKYSSICSEHFTPDCFKRECNNKLLKENAVPTIFLCTEPHDKKEDLLEPQEQLPPPPLPPPVSQVDAAIGLLMPPLQTHVNLSVFCDHNYTVEDTMHQRKRIHQLEQQVEKLRKKLKTAQQRCRRQERQLEKLKEVVHFQKEKDDVSERGYVILPNDYFEIVEVPA [P126H] is 0.531.
